Each block holds one binder with its values, some of them ahead of it.
Molecular target: Recombinant human PTEN protein (human, UniProt P60483 1-403 (dog entry), limits assumed)
Assay: cell-based or functional assay

Sequence of Recombinant human PTEN protein (P60483 whole entry): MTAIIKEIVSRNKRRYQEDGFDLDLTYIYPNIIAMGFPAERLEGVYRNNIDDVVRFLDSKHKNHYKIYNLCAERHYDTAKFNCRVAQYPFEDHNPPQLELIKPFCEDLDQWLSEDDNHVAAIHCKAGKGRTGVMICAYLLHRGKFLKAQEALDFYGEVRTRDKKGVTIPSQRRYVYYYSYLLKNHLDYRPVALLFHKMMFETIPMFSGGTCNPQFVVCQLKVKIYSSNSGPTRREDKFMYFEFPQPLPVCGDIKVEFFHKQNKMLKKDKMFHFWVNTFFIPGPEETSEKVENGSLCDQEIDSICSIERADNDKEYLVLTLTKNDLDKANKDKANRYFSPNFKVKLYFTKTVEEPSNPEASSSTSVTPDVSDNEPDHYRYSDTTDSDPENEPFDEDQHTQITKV

PTEN activity remaining with 10 µM peptide, compared with positive control (in vitro PTEN activity assay): 54%
B1: TGN-1 peptide (peptide)
peptide: RRRRRRRRVTPDVSDNEPDHYRYSDTTDSDPE
modifications: three phosphorylated Serine residues (pS; PTEN Ser370, Ser380 and Ser385 = peptide positions 14, 24 and 29); C-terminal amide

IC50, in vitro PTEN activity assay (lipid phosphatase, C8-PIP3 liposomes, Malachite Green): 87.1 µM | PTEN activity remaining with 10 µM peptide, compared with positive control (in vitro PTEN activity assay): 86%
Binder: RRRRRRRRHYRYVDTTDVDPENEPFDEDQHTQITKV (C-terminal amide) [TGN-3 peptide]

PTEN activity remaining with 10 µM peptide, compared with positive control (in vitro PTEN activity assay): 31%
B2: TGN-2 peptide (peptide)
peptide: RRRRRRRRHYRYSDTTDSDPENEPFDEDQHTQITKV
modifications: two phosphorylated Serine residues (pS; PTEN Ser380 and Ser385 = peptide positions 13 and 18); C-terminal amide

— patent publication US20240115668A1 (KOLON TISSUEGENE, published 2024)
